Assay results from paper PMC12423313, “Protein-based tools for the detection and characterisation of Oropouche virus infection” (EMBO Molecular Medicine, 2025).

B4: OROV Gc spike region (residues 482-894 of the M polyprotein), recombinant, strain BeAn19991 (domain or fragment, Oropouche virus strain BeAn19991)
chain: DEDCLSKDIKITYQELHNCIGPKIMGDTCVSKSELYSDLFSKNLVTEYDKKYFEPDTVNDQFNKIEFAQDAHRMILLERILYKTECEMLSLKKNSGPYNVAWRTYFKNHNIDLCSRHNYKMICQCINTHSMCKNTDIDYNKEIETYYKSNAAAYRADLNTIMDTLKTAFRGLTKVLIENYIEKDDSDALKALFSNITDSVQDNYQMIGILKFASKLLDINLGRSTRSAHHSIMTNEIPKSNPFTDYSYSNLNIKECMSPESLKCFKKRDSTPHTNHLLCKIDNKYKAFDWPEIETIQKGQKLCLGDSHCNLEFTAITADKIMSLTNCYKESFTAQPADMQAGIKKCSADEIGECTTLEDKTWPIIFCGGKYYYSDSKEHAKDGSINNYCLTNKCSEQRFPIHENWFKKCNWDK
notes: Gc spike region (head and stalk domains) of the M polyprotein of Oropouche virus strain BeAn19991, GenBank AJE24679.1, residues 482-894; also called Gc spike domain

Columns and labels:
[1] = target: T1, OROV glycoprotein Gc of the 2023-4 epidemic isolate AM0088, native (Oropouche virus isolate AM0088 …, UniProt A0A0B5CLT0, strain); test: immunostaining of cells or tissue; settings: one partner purified
T1 construct: also called Gc spike; OROV AM0088

[2] = target: T2, OROV glycoprotein Gc of strain BeAn19991, native, in virus stocks and infected cells (Oropouche virus strain BeAn19991, UniProt A0A0B5CLT0); test: immunostaining of cells or tissue; settings: one partner purified
T2 construct: On virus particles Gc stands with Gn; also called Gc spike; OROV BeAn19991

[3] = target: T3, OROV nucleoprotein (N) of strain BeAn19991, native, in virus stocks and infected cells (Oropouche virus strain BeAn19991); test: ELISA; sandwich ELISA with nanobodies, […]; settings: one partner purified
T3 construct: N protein of Oropouche virus strain BeAn19991, GenBank AJE24680.1, as made by the virus; also called OROV BeAn19991
T3 chain: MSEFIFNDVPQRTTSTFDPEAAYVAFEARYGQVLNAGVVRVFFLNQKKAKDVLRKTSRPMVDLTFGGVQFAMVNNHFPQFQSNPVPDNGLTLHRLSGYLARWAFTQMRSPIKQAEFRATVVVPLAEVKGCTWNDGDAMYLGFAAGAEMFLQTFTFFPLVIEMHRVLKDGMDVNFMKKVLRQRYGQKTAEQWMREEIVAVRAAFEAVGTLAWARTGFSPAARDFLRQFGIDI

[4] = target: T4, OROV nucleoprotein (N) of strain TRVL, native, in virus stock (Oropouche virus strain TRVL (stand-in: …, strain)); test: ELISA; sandwich ELISA with nanobodies, […]; settings: one partner purified
T4 construct: N protein of Oropouche virus strain TRVL (Anderson et al, 1961); also called OROV TRVL
T4 chain: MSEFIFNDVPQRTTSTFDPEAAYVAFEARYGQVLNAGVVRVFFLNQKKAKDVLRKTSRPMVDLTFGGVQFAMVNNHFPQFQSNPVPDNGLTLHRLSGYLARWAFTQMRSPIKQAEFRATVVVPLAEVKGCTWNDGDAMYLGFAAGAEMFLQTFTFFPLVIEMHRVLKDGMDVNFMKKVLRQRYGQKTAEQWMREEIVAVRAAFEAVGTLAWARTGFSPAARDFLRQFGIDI

[5] = target: T5, OROV nucleoprotein (N), recombinant, strain BeAn19991 (Oropouche virus strain BeAn19991); test: ELISA; settings: both partners purified
T5 chain: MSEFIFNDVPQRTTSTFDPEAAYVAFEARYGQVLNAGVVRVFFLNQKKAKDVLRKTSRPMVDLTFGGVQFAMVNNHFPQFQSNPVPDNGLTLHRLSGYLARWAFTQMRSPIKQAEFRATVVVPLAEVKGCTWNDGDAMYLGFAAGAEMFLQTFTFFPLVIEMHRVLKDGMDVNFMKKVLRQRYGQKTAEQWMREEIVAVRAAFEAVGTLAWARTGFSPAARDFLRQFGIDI

[6] = target: T6, OROV nucleoprotein (N) of the 2023-4 epidemic isolate AM0088, native (Oropouche virus isolate AM0088, strain); test: immunostaining of cells or tissue; settings: one partner purified
T6 construct: also called OROV AM0088 N
T6 chain: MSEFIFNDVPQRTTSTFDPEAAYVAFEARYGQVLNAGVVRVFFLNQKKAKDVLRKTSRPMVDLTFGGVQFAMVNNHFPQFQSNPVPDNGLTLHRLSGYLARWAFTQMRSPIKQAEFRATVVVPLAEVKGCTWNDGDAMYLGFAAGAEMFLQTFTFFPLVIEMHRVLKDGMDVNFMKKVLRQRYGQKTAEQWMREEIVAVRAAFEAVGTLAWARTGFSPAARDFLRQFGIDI

[7] = target: T3, OROV nucleoprotein (N) of strain …; test: immunostaining of cells or tissue; settings: one partner purified
[8] = target: T7, nanobody-Fc fusion FcSpB6 (llama); test: ELISA; settings: both partners purified
T7 construct: as the VHH of m18; also called FcSpB6-HRP; OROV FcSpB6; not shown: Fc (human IgG1 hinge and Fc domains 2 and 3), C-terminal, kept

[9] = target: T8, biotinylated nanobody-Fc fusion bFcSpC7 (C-terminal AviTag) (llama); test: ELISA; settings: both partners purified
T8 construct: as the VHH of m20; also called OROV FcSpC7 BAP; not shown: Fc (human IgG1 hinge and Fc domains 2 and 3), C-terminal, kept; AviTag, C-terminal, kept

[10] = target: T9, OROV glycoprotein Gc of strain TRVL, native, in virus stock (Oropouche virus strain TRVL (stand-in: …, UniProt A0A0B5CLT0, strain)); test: ELISA; sandwich ELISA with nanobodies, […]; settings: one partner purified
T9 construct: also called Gc spike; OROV TRVL

[11] = target: T2, OROV glycoprotein Gc of strain …; test: ELISA; sandwich ELISA with nanobodies, […]; settings: one partner purified
[12] = target: B4; test: ELISA; […], biotinylated nanobody 2 µg/mL, […], room temperature; settings: both partners purified

B1: AlexaFluor568-conjugated OROV SpE8 nanobody (Cys-His8) (VHH)
VHH: QVQLVESGGGFVRAGDSLRLSCAASGRAFSTYAMGWFRQAPGKEREFVAGITLGSRITQYADSVKGRFTISRDNARQTMYLQMNNLQPEDTADYYCAARGQGSPPLRNRWSADDYNYWGQGLQVTVSS
notes: as the VHH of m21; also called OROV Sp Nb E8 CH8
Question: Does B1 bind [1]?
Answer: Result: binds

Question: Does B1 bind [2]?
Answer: Result: binds

B2: biotinylated nanobody NpE3 (AviTag-His9) (VHH)
VHH: QVQLVESGGGLVRPGGSLRLSCAASGFTFSNAYMTWIRQAPGKDLEWVSSIYYGDMTSYATSVKGRFTISRDNAKNTLYLQMNNLKPEDSAIYYCTKGDERGQGTQVTVSS
notes: VHH NpE3 from an immunised llama; also called bNpE3; OROV Np Nb E3 BAP H9; not shown: AviTag, C-terminal, kept
Question: Does B2 bind [3]?
Answer: Result: binds

Question: Does B2 bind [4]?
Answer: Result: binds

Question: Does B2 bind [5]?
Answer: Result: binds

B3: AlexaFluor568-conjugated OROV NpE3 nanobody (Cys-His8) (VHH)
VHH: QVQLVESGGGLVRPGGSLRLSCAASGFTFSNAYMTWIRQAPGKDLEWVSSIYYGDMTSYATSVKGRFTISRDNAKNTLYLQMNNLKPEDSAIYYCTKGDERGQGTQVTVSS
notes: as the VHH of m13; also called OROV Np Nb E3 CH8
Question: Does B3 bind [6]?
Answer: Result: binds

Question: Does B3 bind [7]?
Answer: Result: binds

Question: Does B4 bind [8]?
Answer: Result: binds

Question: Does B4 bind [9]?
Answer: Result: binds

B5: biotinylated nanobody SpC7 (AviTag-His9) (VHH)
VHH: QVQLVESGGGLVQAGGSLRLSCAASGRTFSPNAMGWFRQAPGKEREFVSAISWSGGSTTYADSVKGRFTISRDNAKNTVSLQMNSLKPEDTAVYYCAADLEGMVVADRIWGQGTQVTVSS
notes: VHH SpC7 from an immunised llama; also called bSpC7; (biotinylated)bSpC7; not shown: AviTag, C-terminal, kept
Question: Does B5 bind [10]?
Answer: Result: binds

Question: Does B5 bind [11]?
Answer: Result: binds

Question: Does B5 bind [12]?
Answer: Result: binds
